The test system of this experiment is vaccinia virus mature virions (EGFP-MV). Format: cell-based.

B1: AID (protein, UniProt Q9GZX7 1-198, looked up)
Single-stranded DNA cytosine …: MDSLLMNRRKFLYQFKNVRWAKGRRETYLCYVVKRRDSATSFSLDFGYLRNKNGCHVELLFLRYISDWDLDPGRCYRVTWFTSWSPCYDCARHVADFLRGNPNLSLRIFTARLYFCEDRKAEPEGLRRLHRAGVQIAIMTFKDYFYCWNTFVENHERTFKAWEGLHENSVRLSRQLRRILLPLYEVDDLRDAFRTLGL
Regarding B1, the “inhibition of infection by expression of construct” value stood at 80%.

B2: dominant negative dynamin (K44A) (protein, UniProt Q05193 1-864, looked up, variant K44A)
Dynamin-1: MGNRGMEDLIPLVNRLQDAFSAIGQNADLDLPQIAVVGGQSAGASSVLENFVGRDFLPRGSGIVTRRPLVLQLVNATTEYAEFLHCKGKKFTDFEEVRLEIEAETDRVTGTNKGISPVPINLRVYSPHVLNLTLVDLPGMTKVPVGDQPPDIEFQIRDMLMQFVTKENCLILAVSPANSDLANSDALKVAKEVDPQGQRTIGVITKLDLMDEGTDARDVLENKLLPLRRGYIGVVNRSQKDIDGKKDITAALAAERKFFLSHPSYRHLADRMGTPYLQKVLNQQLTNHIRDTLPGLRNKLQSQLLSIEKEVEEYKNFRPDDPARKTKALLQMVQQFAVDFEKRIEGSGDQIDTYELSGGARINRIFHERFPFELVKMEFDEKELRREISYAIKNIHGIRTGLFTPDMAFETIVKKQVKKIREPCLKCVDMVISELISTVRQCTKKLQQYPRLREEMERIVTTHIREREGRTKEQVMLLIDIELAYMNTNHEDFIGFANAQQRSNQMNKKKTSGNQDEILVIRKGWLTINNIGIMKGGSKEYWFVLTAENLSWYKDDEEKEKKYMLSVDNLKLRDVEKGFMSSKHIFALFNTEQRNVYKDYRQLELACETQEEVDSWKASFLRAGVYPERVGDKEKASETEENGSDSFMHSMDPQLERQVETIRNLVDSYMAIVNKTVRDLMPKTIMHLMINNTKEFIFSELLANLYSCGDQNTLMEESAEQAQRRDEMLRMYHALKEALSIIGDINTTTVSTPMPPPVDDSWLQVQSVPAGRRSPTSSPTPQRRAPAVPPARPGSRGPAPGPPPAGSALGGAPPVPSRPGASPDPFGPPPQVPSRPNRAPPGVPSRSGQASPSRPESPRPPFDL
In the case of B2, the “effect of expressed construct on infection” value is recorded as “no impact”.

The values are drawn from patent US20100272706A1, “ANTIVIRALS” (priority 2007, published 2010).
